Measured values reported in paper PMC8240387 (2021).

What was measured:
[1] = biological target: recombinant, soluble HIV-1 UG37 gp140 (HIV-1 clade A strain 92UG037); assay: SPR
soluble FcγRIIIa = soluble FcγRIIIa (UniProt P08637 17-208); assay: SPR
Sequence of soluble FcγRIIIa (P08637 17-208): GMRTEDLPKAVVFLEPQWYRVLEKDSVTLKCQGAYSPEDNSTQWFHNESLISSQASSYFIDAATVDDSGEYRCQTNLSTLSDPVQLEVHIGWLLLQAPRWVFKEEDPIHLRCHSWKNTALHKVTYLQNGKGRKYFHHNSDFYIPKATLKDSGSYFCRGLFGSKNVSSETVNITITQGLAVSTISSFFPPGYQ

B1: Mammalian cell-expressed N6 (mN6), broadly neutralising anti-HIV monoclonal antibody N6 expressed in HEK-293T cells (antibody)
chain 1: RAHLVQSGTAMKKPGASVRVSCQTSGYTFTAHILFWFRQAPGRGLEWVGWIKPQYGAVNFGGGFRDRVTLTRDVYREIAYMDIRGLKPDDTAVYYCARDRSYGDSSWALDAWGQGTTVVVSA
chain 2: YIHVTQSPSSLSVSIGDRVTINCQTSQGVGSDLHWYQHKPGRAPKLLIHHTSSVEDGVPSRFSGSGFHTSFNLTISDLQADDIATYYCQVLQFFGRGSRLHIK
modifications: N-glycosylated (size shift on PNGaseF digestion) | N-glycosylated (size shift on PNGaseF digestion)
Question: What does the source list for B1?
Answer: koff [1]: 0.000189 s⁻¹; koff (soluble FcγRIIIa): 0.17 s⁻¹

B2: Plant-expressed N6 (pN6), broadly neutralising anti-HIV monoclonal antibody N6 expressed in glycoengineered ΔXF N. benthamiana (antibody)
chain 1: RAHLVQSGTAMKKPGASVRVSCQTSGYTFTAHILFWFRQAPGRGLEWVGWIKPQYGAVNFGGGFRDRVTLTRDVYREIAYMDIRGLKPDDTAVYYCARDRSYGDSSWALDAWGQGTTVVVSA
chain 2: YIHVTQSPSSLSVSIGDRVTINCQTSQGVGSDLHWYQHKPGRAPKLLIHHTSSVEDGVPSRFSGSGFHTSFNLTISDLQADDIATYYCQVLQFFGRGSRLHIK
modifications: N-glycosylated: GnGn 81.67%, fucosylated 0.69%, no xylosylation, 6.48% non-glycosylated | N-glycosylated: mature complex-type glycans, α(1,3)-fucose 20.93%, no xylosylation, no high mannose …
Question: With B2 as the binder, how does the koff [1] read?
Answer: 0.000115 s⁻¹

Question: And the koff (soluble FcγRIIIa)?
Answer: 0.016 s⁻¹
